Patent US20190338048A1

Target: Recombinant human IL-17A (human) (UniProt Q16552)
Test: SPR

Sequence of Recombinant human IL-17A (human) (Q16552 20-155 limits assumed): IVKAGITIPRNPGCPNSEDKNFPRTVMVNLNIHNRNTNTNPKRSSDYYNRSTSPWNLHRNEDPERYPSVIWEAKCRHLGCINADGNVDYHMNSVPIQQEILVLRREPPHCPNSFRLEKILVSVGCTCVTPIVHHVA

Substance | Kd | Change in KD of H1L1 Fab vs wild type, -(log(KD design)-log(KD wt)) | Change in KD of H1L1 Fab vs wild type
CAT-2200 Fab heterodimer (H1L1) with H1 K145T_V177D_S188D and L1 S176K_Y178K | 0.27 nM |  | 
CAT-2200 Fab heterodimer H1 L143K / L1 K129T_V133D | 0.26 nM |  | 0.03
CAT-2200 Fab heterodimer H1L1 of design 10652-10755 (H1 L143E_K145T, L1 E124R) | 0.28 nM |  | 
CAT-2200 Fab heterodimer H1L1 with H1 F174G and L1 T116F_S176F | 0.23 nM |  | 0.08
CAT-2200 Fab heterodimer H1L1 with H1 K145T_V177D_S188D and L1 S176K_Y178K | 0.27 nM |  | 0
CAT-2200 Fab heterodimer H1L1 with H1 L143D_K145T and L1 E124Q_T131K_V133S | 0.33 nM |  | -0.08
CAT-2200 Fab heterodimer H1L1 with H1 L143D_K145T and L1 E124Q_T131R | 0.35 nM |  | -0.1
CAT-2200 Fab heterodimer H1L1 with H1 L143E_K145T_Q179E and L1 E124Q_T131R | 0.29 nM | -0.03 | 
CAT-2200 Fab heterodimer H1L1 with H1 S186R and L1 K129T_S180E | 0.26 nM | 0.03 | 
CAT-2200 Fab heterodimer H1L1 with H1 V177I_S188K and L1 V133L_S176D_Y178E (Kabat) | 0.22 nM |  | 
CAT-2200 Fab heterodimer H1L1 without pairing substitutions (H1L1 of Mab design sets 10771-11335 and 10771-11360) |  | 0 | 
CAT-2200 Fab heterodimer H1L1 without pairing substitutions (wild-type H1 and L1) |  | 0 | 
CAT-2200 Fab, H1 A125R_S186R / L1 S122D_K129T_S180E | 0.21 nM | -0.0041 log(KD) | 
CAT-2200 Fab, H1 K145T_S188E / L1 Y178K | 0.34 nM |  | -0.22
CAT-2200 Fab, H1 L143D_K145T / L1 E124Q_T131R | 0.35 nM |  | -0.22
CAT-2200 designed Fab heterodimer, H1 K145T_S188E / L1 Y178K | 0.34 nM | -0.22 | 
CAT-2200 designed Fab heterodimer, H1 L143D_K145T / L1 E124Q_T131K_V133S | 0.33 nM | -0.19 | 
CAT-2200 designed Fab heterodimer, H1 Q179K / L1 K129T_S180E | 0.24 nM | -0.056 | 

Other lines, results leading:

Kd | Change in KD of H1L1 Fab vs wild type, -(log(KD design)-log(KD wt)) | Change in KD of H1L1 Fab vs wild type | Substance
0.27 nM |  |  | CAT-2200 Fab heterodimer (H1L1) with H1 K145T_V177D_S188D and L1 S176K_Y178R
0.26 nM | 0.03 |  | CAT-2200 Fab heterodimer (H1L1) with H1 L143K and L1 K129T_V133D
0.29 nM |  | -0.03 | CAT-2200 Fab heterodimer H1 L143E_K145T_Q179E / L1 E124Q_T131R
0.34 nM |  | -0.1 | CAT-2200 Fab heterodimer H1L1 with H1 K145T_S188E and L1 Y178K
0.22 nM |  | 0.1 | CAT-2200 Fab heterodimer H1L1 with H1 L143D_K145T and L1 E124Q_T131K
0.26 nM | -0.088 |  | CAT-2200 Fab heterodimer, H1 S186R / L1 K129T_S180E
0.36 nM | -0.24 |  | CAT-2200 Fab heterodimer, H1 S188K / L1 S176E_Y178E
0.34 nM |  | -0.22 | CAT-2200 Fab with H1 K145T_S188E and L1 Y178K
